The values that follow come from US10464976B2, “Amyloid β(1-42) oligomers, derivatives thereof and antibodies thereto, methods of preparation thereof and use thereof” (AbbVie Deutschland GmbH & Co. KG, priority 2003, dated 2019).

Like-named read-outs stand apart in the source and are kept apart here. Where no end group is shown, it is not given here. Where only a bound is given, the exact number is not on record here.

A short description of data set [1]: Detection of Aβ(1-42) oligomers B in rat brain homogenates after icv administration. Conditions: Western blot, after 2 hours. In general terms: A western blot detects proteins with antibodies after separation by electrophoresis.
For data set [2] the following is noted: rat, in vivo; for Aβ(1-42) detected in brain extract: 10 nmol.
Data set [3] is described as follows: Stability of Aβ(1-42) oligomers B in physiological buffers (SDS PAGE). In kind it is physicochemical. As to the method: The Aβ(1-42) oligomers B obtained according to example 6b are tested for stability in PBS buffer under the following conditions.
5 mg/ml are diluted with PBS in 2× dilution steps down to 0.08 mg/ml. All solutions obtained are incubated at room temperature for 24 hours. This was followed by analyzing the band pattern in an SDS PAGE in comparison with a frozen control preparation.
The Aβ(1-42) oligomers B obtained according to example 6b are diluted to 0.5 mg/ml with PBS buffer and incubated at room temperature or at 37° C. for 24 h or 96 h.
Subsequently, the band pattern was analyzed in an SDS PAGE.

For data set [4] the following is noted: rat.
The next data set deals with murine cortical neurons. Kind of data set: Neurotoxic action on murine cortical neurons (LDH release). In kind it is cell-based. Particulars: 24 h, various final concentrations, n=12. On the procedure: Murine cortical neurons are prepared and cultured as a mixed culture with glia cells following the literature (Choi et al. (1987) J. Neurosci. 7, 357-368). The cortices of embryos on days 14-15 of development are mechanically removed from the meninges and lower brain regions. The cells are separated from one another by incubation in a 0.05% strength trypsin solution at 37° C. for 5-7 minutes and subsequently pipetting said solution several times through a pasteur pipette with reduced opening. After determining the number of cells, 430 000 cells are seeded in 0.5 ml of maintenance medium (minimum essential medium containing 0.8 mM glutamine, 18 mM glucose, 23 mM NaHCO3 and 10% of horse serum) per 2 cm^2 on cell culture material coated with poly-L-ornithine and laminine. Cultivation and later incubations of the cells are carried out in a humidified cell culture incubator at 37° C., 5% CO2. […] The cell culture supernatants are removed after 24 h, the remaining cells are destroyed by incubation in distilled water for 20 minutes and the activity of the enzyme lactate dehydrogenase (LDH) is determined enzymatically in both solutions. For evaluation, the ratio of the LDH activity of the cell culture supernatants to the sum of the LDH activities of supernatant and remaining cells is determined and the average of the quadruple determinations is formed. […]
(LDH in the medium is a marker of cell lysis.)

Data set [5] relates to rat primary hippocampal neurons. The data set can be described thus: Binding to rat primary hippocampal neurons (immunofluorescence). In kind it is cell-based. Particulars: 200 nM, 37° C., 15 minutes, detection with 6E10 and Cy3 second antibody. As to the method: The binding of rat Aβ(1-42) oligomers B of example 5b to rat primary hippocampal neurons was studied. The hippocampal neurons were cultured in neurobasal medium with B27 supplement on poly-L-lysine-coated cover slips and used on day 14 of the culture. The oligomers were bound to the cell membrane of the neurons by adding 200 nM (total monomeric Aβ concentration) oligomers to fresh culture medium and incubating at 37° C. for 15 minutes. After removing the Aβ-containing medium, two washing steps with medium were carried out and the cells were then fixed in 3.7% formaldehyde. After further washing of the cells, unspecific binding sites were blocked with 10% normal donkey serum in PBS buffer at room temperature for 90 min. 6E10 (from mouse) was applied as the first antibody in a 1:2000 dilution at room temperature for 2 h. The cells were washed again and incubated with the second antibody (from donkey) which is directed against mouse and which is coupled to the fluorescent dye Cy3, at room temperature for 2 h. After the cells had been washed again, the cover slips containing the neurons were fixed to a slide with embedding medium. The hippocampal neurons with bound Aβ oligomers were depicted in a fluorescent microscope. The control used was a mixture in which the first antibody 6E10 had been omitted.

For the substance “Aβ(1-42) oligomers B: oligomers of human amyloid β(1-42) protein with molecular weights of 38 kDa and 48 kDa in SDS PAGE (examples 5a, 6b)”, in data set [1], the “oligomeric structure after in vivo administration (38/48 kDa bands)” value is listed as “oligomeric structure is still retained”. For the same substance, the “average biological half life (brain)” value in data set [2] was “about 105 min”. For the same substance, the entries for the “Aβ(1-42) detected in brain extract” value in data set [2] (0.25 h) and in data set [2] (2 h) were “about 0.4 nmol/g” and “approx. 0.2 nmol/g”, respectively. The “band pattern in SDS PAGE” value in data set [3] (0.5 mg/ml in PBS, room temperature or 37° C., 24 h or 96 h) is given as “identical in all samples”. The “band pattern in SDS PAGE versus frozen control” value in data set [3] (PBS, 5 mg/ml down to 0.08 mg/ml, room temperature, 24 hours) was “identical in all samples”. The “biological half life in the plasma” value in data set [4] is at least 8 hours. In addition, the “neurotoxicity (neuronal death, LDH)” value with murine cortical neurons is on record as “distinct toxic action”.
As to “rat Aβ(1-42) oligomers B: oligomers of rat amyloid β(1-42) protein with molecular weights of 38 kDa and 48 kDa (example 5b) (DAEFGHDSGFEVRHQKLVFFAEDVGSNKGAIIGLMVGGVVIA; also: oligomers of 38 kDa and 48 kDa)”, the “binding to the cell surface of the neurons” value in data set [5] was “bind to the cell surface of the neurons in a dotted manner”.
